Experimental data reported in patent publication US8106154B2, “Nitrogen-based linkers for attaching modifying groups to polypeptides and other macromolecules” (Affymax, Inc., priority 2007, dated 2012).

Key:
Type in all cases: cell-based
[1] = tested on: primary human bone marrow pluripotent stem cells
Protocol: EPO-R signaling stimulates the differentiation of bone marrow stem cells into proliferating red blood cell presursors. This assay measured the ability of test peptides to stimulate the proliferation and differentiation of red blood cell precursors from primary human bone marrow pluripotent stem cells. Test peptides were added to cultures of human bone marrow cells, and the cells are incubated for 16 days. Thereafter, the number of red blood cell colonies were counted. The concentration of test peptide at which the number of formed colonies is 90% of maximum, relative to that observed with EPO, was recorded as the EC90.

[2] = molecular target: T1, human EPO-R (Homo sapiens, UniProt P19235); test: Reporter assay (fos promoter-driven luciferase); settings: murine pre-B-cell line expressing human EPO-R with luciferase reporter; 4 hr incubation; half-maximal relative to EPO
T1 construct: expressed in transfected cells; host or cells: murine pre-B-cell line
T1 sequence (P19235 25-508): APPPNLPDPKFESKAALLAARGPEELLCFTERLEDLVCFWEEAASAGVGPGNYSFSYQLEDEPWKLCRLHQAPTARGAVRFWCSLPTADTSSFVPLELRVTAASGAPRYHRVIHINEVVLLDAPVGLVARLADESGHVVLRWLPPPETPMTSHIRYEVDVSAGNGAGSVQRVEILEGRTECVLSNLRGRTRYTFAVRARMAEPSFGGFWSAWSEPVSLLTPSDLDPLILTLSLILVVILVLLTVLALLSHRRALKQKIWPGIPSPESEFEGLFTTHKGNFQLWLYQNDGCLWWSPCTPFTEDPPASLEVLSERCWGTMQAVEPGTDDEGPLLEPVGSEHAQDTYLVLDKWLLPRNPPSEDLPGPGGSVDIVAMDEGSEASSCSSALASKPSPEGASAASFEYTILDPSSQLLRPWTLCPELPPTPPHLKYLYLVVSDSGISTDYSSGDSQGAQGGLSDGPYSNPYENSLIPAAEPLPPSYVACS
Excerpt: This assay was based upon a murine pre-B-cell line transfected to express human EPO-R and further transfected with a fos promoter-driven luciferase reporter gene construct. Upon exposure to EPO or another EPO-R agonist, such cells respond by synthesizing luciferase. Luciferase causes the emission of light upon addition of its substrate luciferin. Thus, the level of EPO-R activation in such cells may be quantitated via measurement of luciferase activity.
The activity of a test peptide was measured by adding serial dilutions of the test peptide to cells, which were then incubated for 4 hr. After incubation, luciferin substrate was added to the cells, and light emission was measured. The concentration of test peptide that results in a half-maximal emission of light, relative to that observed with EPO, was recorded as the EC50.

[3] = molecular target: T1, human EPO-R; test: Proliferation assay (MTT); settings: murine pre-B-cell line expressing human EPO-R, 48 hours incubation, half-maximal relative to EPO
Protocol: This assay was based upon a murine pre-B-cell line transfected to express human EPO-R. Proliferation of this cell line is dependent on EPO-R activation. The degree of cell proliferation was quantitated using MTT, where the signal in the MTT assay is proportional to the number of viable cells. The activity of a test peptide was measured by adding serial dilutions of the test peptide to cells, which were then incubated for 48 hours. After incubation, MTT was added to the cells, and absorbance was measured. The concentration of test peptide that results in a half-maximal absorbance, relative to that observed with EPO, was recorded as the EC50.

With CC[C@H](C)[C@@H]1NC(=O)[C@@H]2CCCN2C(=O)CNC(=O)[C@H](CCSC)NC(=O)[C@H](Cc2c[nH]cn2)NC(=O)[C@@H](NC(=O)[C@H](C)NC(=O)[C@H](Cc2ccc(O)cc2)NC(=O)[C@H](CC(C)C)NC(=O)CNC(=O)CNC(C)=O)CSSC[C@@H](C(=O)N[C@@H](CCC(N)=O)C(=O)N2CCC[C@H]2C(=O)N[C@@H](CC(C)C)C(=O)N[C@@H](CCCNC(=N)N)C(=O)N(C)CC(=O)N[C@@H](CCCCNC(=O)CN(CC(=O)NCCCC[C@H](NC(=O)CN(C)C(=O)[C@H](CCCNC(=N)N)NC(=O)[C@H](CC(C)C)NC(=O)[C@@H]2CCCN2C(=O)[C@H](CCC(N)=O)NC(=O)[C@@H]2CSSC[C@H](NC(=O)[C@H](C)NC(=O)[C@H](Cc3ccc(O)cc3)NC(=O)[C@H](CC(C)C)NC(=O)CNC(=O)CNC(C)=O)C(=O)N[C@@H](Cc3c[nH]cn3)C(=O)N[C@@H](CCSC)C(=O)NCC(=O)N3CCC[C@H]3C(=O)N[C@@H]([C@@H](C)CC)C(=O)N[C@@H]([C@@H](C)O)C(=O)N[C@@H](Cc3cccc4ccccc34)C(=O)N[C@@H](C(C)C)C(=O)N2)C(N)=O)C(=O)CCCC(=O)N(CCN)CCN)C(N)=O)NC(=O)[C@H](C(C)C)NC(=O)[C@H](Cc2cccc3ccccc23)NC(=O)[C@H]([C@@H](C)O)NC1=O [Example 8 peptide (non-PEGylated)] the EC90 [1] was 0.026 nM.

“Compound V: As Example 10 but peptide monomer Ac-GGLYACHYGPIT(Nal)VCQPLR(MeG)K, SEQ ID NO: 23 (GGLYACHYGPITXVCQPLRXK; not fully specified; conjugate chemistry not built)” gave an EC50 [2] of 0.69 nM and an EC50 [3] of 0.44 nM.
